Assay results reported in the DeepSol protein solubility set.

experiment: soluble on expression in E. coli; label from the status in PepcDB or PDB records

Sequence	soluble on expression in E. coli
MFDRYDAGEQAVLVHIYFSQDKDMEDLQEFESLVSSAGVEAMQVITGSRKAPHPKYFVGEGKAVEIAEAVKATGAAVVLFDHALSPAQERNLERLCECRVIDRTGLILDIFAQRARTHEGKLQVELAQLRHLATRLVRGWTHLERQKGGIGLRGPGETQLETDRRLLRNRIVQIQSRLEKVEKQREQGRQSRIKADVPTVSLVGYTNAGKSTLFNQITEARVYAADQLFATLDPTLRRIDVADVGETVLADTVGFIRHLPHDLVAAFKATLQETRQATLLLHVVDAADVRVQENIEAVNTVLEEIDAHEIPTLMVMNKIDMLDDFEPRIDRDEENKPIRVWLSAQSGVGIPQLFQALTERLSGEVAQHTLRLPPQEGRLRSRFYQLQAIEKEWMEEDGSVSLQVRMPIVDWRRLCKQEPALIEYVILEHHHHHH	soluble
MFDSLAKAGKYLGQAAKLMIGMPDYDNYVEHMRVNHPDQTPMTYEEFFRERQDARYGGKGGARCC	soluble
MFDTKIAVILRDDLAVWQKLNVTAFLMSGIVAQTGEIIGEPYRDGAGNVYNPLSIQPIVVMATDQEALRKIHQRSLERDITTSLYIEEMFATGHDAANRQVFSHFSPDTAKVVGMALRADRKIVDKITKGAKLHA	soluble
MFENNETLIVWSETDVMDLALSFQEKSGCEELWQKICEVQGRDPGDPDATFDDGDDSDVGEMPSSASRLQLPPIEIGRLGELDALLHMHLTTNSAREKMTLAIENDNVVTKLCEVFRMCEDIEHTEGLRTFYSIVKNLFMLNRNTVIEMLLDDNNIKDVIGMFEFDPAYKHPRKHRDFVYKKAKFREVLNISCDELRDKIHRLYRAQYIQDACLPSLGLFEENLLSTLSSHVFFCRVDIVTLLQKDKKAMSELFGQLISEETDVIRRRDLALFLKEMISLSTSIPSNGPAATKETFFKVLQNMFNSEILDSLEPCFKSPDHETRAVMVDVLRTMVDANAQMIRDFLLKQSKTKDKNEDVLLNMMIRHLLTDIDVHLTSGSEIVLIMKTLLDPENMTTVKSERSDFLQLFYNRCYESLLKPILENVSGGNIKKDDYMIANRQSVILRLLTFCVEHHSFSMRQRCVSNDLMNKVLVLLKSKHSFLVLSALKLLQRVVTVKDDKYIRYIVKEKVLDPVMECFRKNGNRYNIINSSVLHLFEFVRSEDVRPLIKYVVENHMEVVDSVNYVKTFKEIKIRYDQHRDREETMSVRSEDNSLASPRSFRKDRNEDQWFDEDEDLEVGTMLESIEKDSVAVSPKKEEAGQRKTGMEPMFPSLLKRKNAFDDDEAPVFGGGSAAVINNTEKKIVIKVNSDRSPSRTPSPASSPRASSSPGPSRDDEVTSSQNNKESSPTPTVKSLVDYDESDDSDDDPPSPDAVPSSSTGSPEKEGDSADGKKGDSPEYNDVSSTSNEEKFDSRNGAPVTNENGGVEAAAPTVEISRKRTSDGIDPDAKRIRTEETAPAATATVSQA	not soluble
MFFVLSPAKNLNEKDPAPVSEFTQPDLLAESDILMQQLRELAPQQIAELMHVSDKIALLNAQRNAEWNTPFTPENAKQAVFMFNGDVYEGMDANTLDIGQIRYLQNHVRLLSGLYGLLRPLDLIQPYRLEMGTAFANLRGKNLYEFWGDIITNLLNDTLAQAGSNTLVNLASQEYFKSVNTKKLRARLITPIFKDEKNGKYKIISFYAKRARGLMVRYAAEHHITDPEMLKNFNYEGYAFNDAASNESEWVFMRSEQIK	not soluble
MFIREEEQMKRMIITIGRQSGSSGRKVGELLAERLSLPLYGKAELQKIAEGTDDYEEVQAFYEEEPVNSLLYAIAMSQFEQEVGRIPFQRIRELASKESCIIIGRCAGHIFREDPEAVRVFIHADPKIRVQRIMEREGLSETKAKKFLEDTDSRRASFHKYYTKQEWGLAQDYELCLDSGVLGIEGTVEVLTEYLRFRGFLGNE	not soluble
MFKLFTARQHDKIWDFDGGIHPPEMKLQSSTVPMRIAPLPDQLIIPLQQHLGPEGELRVRAGEQVLKGQPLTVGRGRTVPVHAPTSGMITAIAPHTTAHPSGLAELCVHITPDGEDRWREQQPWADYRQRDKMALLDRIHQAGIAGLGGAGFPTASKLQGGLNGIITLIINAAECEPYITADDRLMQEHADEVITGIHILRHLLQPQQVLIGIEDNKPEAIAALQRALRGQDDIHLRVVPTKYPSGGAKQLTKILTGKEVPFGKHSSSIGVLMQNVGTVVAIKRAVIDDEPLIERVVTLTGDALSSPGNFWARIGTPVLYLLKLAGFKPQNPPMVIMGGPLMGFTLPSLDVPIVKISNCILAPAETEMGLSEPEQSCIRCGLCVDACPAGLLPQQLYWFSRGEEHEKARNHNLFDCIECGACAYVCPSNIPLVQYYRQEKAEIRALDQESARAAEAKARFEAKQARLAREKLARELRHKQAAVKLTDADQQTVDAAVSRLTRQSDGSESVINIPAGQMPDNSAVIAAREARKAQARARQAEKQQARSTEETTDVVDPRQAAVAAAIARVKAKKAVQAQHVTTDVAEAGSEAMAEDPRKAAVAAAIARVKAKKAAQAINPD	not soluble
MFLNTNEILDYSALKYMPNLKSLTVANAKIKDPSFFANLKQLNHLALRGNEFSDVTPLVKMDHLDSLDLSNNKITNVAPLIEMKNVKSLYLSGNQIEDVTALAKMEQLDYLNLANNKITNVAPLSALKNVTYLTLAGNQIEDIKPLYSLPLTDLVLTRNKVKDLSGIEQMKQLEELWIGKNEIKDVTPLSKMTQLKQLHLPNNELKDITPLSSLVNLQKLDLEANYISDLTPASNLKKLVFLSFVANEIRDVRPVIELSKTAYINVQNQKVFLEETEVNKEVKVPIYEKDGKISTKIRLKGEGGTYSNDAVKWSTPGEKVYEFGVKDPFADTGIFFTGSVIQNVVESKADNTSKEDNTSKEDAKVEVVEFKDVPKGHWSEEAIHYLAKENIFKGYGNGQFGFGDSITRGQVASLVQRYLKLENKVEQKERFTDTKGHMFEQDIATVAQAGIMQGDGTGEFRPDGVLTRYEMSVVLYKVFQLKEDGNNKVNFKDVPTGHWAEGYVKALVDNNISKGDGKERFLGDDFVTREQYAQFLYNAITK	not soluble
MFLTRSEYDRGVSTFSPEGRLFQVEYSLEAIKLGSTAIGIATKEGVVLGVEKRATSPLLESDSIEKIVEIDRHIGCAMSGLTADARSMIEHARTAAVTHNLYYDEDINVESLTQSVCDLALRFGEGASGEERLMSRPFGVALLIAGHDADDGYQLFHAEPSGTFYRYNAKAIGSGSEGAQAELLNEWHSSLTLKEAELLVLKILKQVMEEKLDENNAQLSCITKQDGFKIYDNEKTAELIKELKEKEAAESPEEADVEMS	soluble
MFLVDSHCHLDGLDYESLHKDVDDVLAKAAARDVKFCLAVATTLPGYLHMRDLVGERDNVVFSCGVHPLNQNDPYDVEDLRRLAAEEGVVALGETGLDYYYTPETKVRQQESFIHHIQIGRELNKPVIVHTRDARADTLAILREEKVTDCGGVLHCFTEDRETAGKLLDLGFYISFSGIVTFRNAEQLRDAARYVPLDRLLVETDSPYLAPVPHRGKENQPAMVRDVAEYMAVLKGVAVEELAQVTTDNFARLFHIDASRLQSIR	soluble
MFNKILVVCVGNVCRSPTAERLLKRFHPSLTVASAGLGALVGKGADPAAASVASAHDLSLENHCARQISARLCREYDLILTMEKRHIAALCDIAPEMRGKVMLFGHWDSEREIPDPYRKSRDAFEAVYTLLERSARQWAQALNAEQGKP	not soluble
MFPRKELLKDGSLLLIREASIWDARRIVEYLKEVTSETDFLITRPDEVYDVSTERNYIRMYRSNPGKLMIVGEINREIVSLLTFTGFGRKRTKHVGEIGISVKKRYWNIGIGTRMITSAIEWARRNGFIRIQLEVLKSNERAISLYRKLGFELEGIKRKAVRRDDGSFEDVLVMALLLD	soluble
MFPSVDPEKCEDKGECVSTCPYEVFELGIRTAEEISELSFIGRIEARAHGNRMARTSHIDMCHVCGDCVIVCSEKAIRLLPR	not soluble
MFRPILILTILSCVLAYHQYRELKCSTPTNSIRGGPDRAECHLVLKAEELETGRPVPTGLGCWQEDHDGEEREYCDIVCPKSHTVFISYIDQGHRACFNFITYQVEKRNDEHVLWRSGKCLNSTVNYRIGCKFDDPFETQFKSDNEIFAHLRARARRV	not soluble
MFSDYHVHSSFSFDSEESPRAIVEKAIALGMKQICFTDHQDFNWPIKGESPYIDFPKYFEVLNSLRNEYSSKINILKGVELGLTSDNFSLCHKFLDSYDFDFVIGSCHIVDQMDPYYAEFWKGKNDRDCFELYFKTLLDSLKFFIGRNTCTTPRTVNTLGHLDYIVRYSPNKDNNYSVADYIDVIDEILKMIIENDIKLEINTSNFSKGFDFPNPHTDIIRRYKELGGLYVTVGSDAHKAQFIGSGFDLVEKIVEKYKLKVFTI	not soluble
MFSIQIPALHGKYLREVLESIREQTFQDYEVVVVNSGGGVISDIVHEYGFKEVRKDVKLLEARYLANKESRGDYAFLLDETRPLRKDALEILSKNLHDMVIIGERELGDSFWSRAAQLDKENIMECNSPEAVRGFALPRLFKRELLTASLEKLRENLREKFSQVVFPDHELIYYEASGFSNDIFVIKDELVYHYGDFTLKEIVRKYYRYGKSLKVLKDTPYSFMTSVSRKRREICVGGIKGRLTLYILYLARGIPFLFGKFSLLEHHHHHH	soluble
MFSPDTNSEFYDDFYTKYNTNMAPTTSTFNAQPRLSLDSGLGLTNDSFYSTDLNETHLMDISAGNASTSFQSQPPPQLESSPPTKWARIRTPPNRKKKISHEGPNQEALPPGFNLFSPPSRKKIKTAFSSPPPKSMKTPDSLRKSIRISSPSPFKVTFSKTPLKLSNNENVTGIHIGRSGTYYNKQVTGSASKRCLLPSKPDGFTFLGSPGNSDVLDFPLQTTFEGFGDLDTPAKINAALEVNNDDSMDYYQYAGMIETSSSLATYTNSTGPLVENHARNLKSVPISRTASRNLMKISRKSVEEPVPEPQAVHVEPVIEKPTKISAKKEKEQKKSAAKEAALKEAKEKEMRIWKLAPFETPKKEVPLYSGRWLVISTGRTLAQQELFSDAKSFFKANPPPAPRAPQAPELASGPRRIPTIQRVTLFKHRYRSPRD	not soluble
MFSPEQIAGKDVRLLRIKKEGSLDLALEGGVDSPVGKVVVSAVYEGGAAERHGGVVKGDEIMAINGKIVTDYTLAEAEAALQKAWNQGGDWIDLVVAVCPPKEYDDELTFF	soluble
MFSVNNTHSSVSCSPSINSNSTSNEHYLRILTEWEKNSSPGEERGIAFNRLSQCFQNQEAVLNLSDLNLTSLPELPKHISALIVENNKLTSLPKLPAFLKELNADNNRLSVIPELPESLTTLSVRSNQLENLPVLPNHLTSLFVENNRLYNLPALPEKLKFLHVYYNRLTTLPDLPDKLEILCAQRNNLVTFPQFSDRNNIRQKEYYFHFNQITTLPESFSQLDSSYRINISGNPLSTRVLQSLQRLTSSPDYHGPQIYFSMSDGQQNTLHRPLADAVTAWFPENKQSDVSQIWHAFEHEEHANTFSAFLDRLSDTVSARNTSGFREQVAAWLEKLSASAELRQQSFAVAADATESCEDRVALTWNNLRKTLLVHQASEGLFDNDTGALLSLGREMFRLEILEDIARDKVRTLHFVDEIEVYLAFQTMLAEKLQLSTAVKEMRFYGVSGVTANDLRTAEAMVRSREENEFTDWFSLWGPWHAVLKRTEADRWAQAEEQKYEMLENEYSQRVADRLKASGLSGDADAEREAGAQVMRETEQQIYRQLTDEVLALRLSENGSRLHHS	not soluble
MFTKSCAKATDQNRQELFMDSLLGDFQKMKEKALNQQQERRSKKRELHCKSSEKTKKPNQYAALTHSQVQEVKAKVRTVNDKFHLNAEEKKLWELILLGNQLAQNISSCDLPTDNEDDASLVKLTQIFADETLERTDLTWLNKILKIALYSRGSGFGNCQEKAFFVFALLLHQAQKPESLIHSLRLATFNNHFILIVNEQFLMDPWLNLAFPLSKGNQQLEIGYVFERFGRLVNYFSINQEGQCFTHTVREGGTIERDPSSEKDMANCIHSLLDHRDYFDLSIVSEREIHTNTKRRKYENQEQEVPQPRQETSNQPTETVYTDSSHNTWDNEGAADDFLEHFEQTHPVYNPGFFSFGQDDVGLKPDLPKNLFKF	not soluble
